± gives the standard deviation of the averaged measurements.
Test system: ATP
Assay: switch fluorescence ratio, 500 uM ATP over buffer (Cy3 cluster intensity, sum of 5 cycles each) (fold (ratio)); higher = stronger signal-on switching upon ATP binding; sequences stand for … in TCGTCGGCAGCGTCAGATGTGTATAAGAGACAGTTTTTTTTTTTTTTTTTTTTTTTTT…TC
Details: aptamer strand: ATP DNA aptamer (quencher-CACCTGGGGGAGTATTGCGGAGGAAGG + anchor), 100 nM annealed; ATP concentration: 500 uM
Procedure, shortened: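 Clusters carrying Cy3-labelled switching strands on a modified Illumina MiSeq flow-cell were annealed to 100 nM quencher-labelled ATP aptamer and imaged in selection buffer. They were imaged again after 15 min with 500 uM ATP at 22 °C, over five buffer/ATP cycles with NaOH stripping and re-annealing in between. For each cluster, the fluorescence ratio is the summed Cy3 intensity of the target cycles divided by that of the buffer cycles, averaged per switch-domain sequence. Clusters outside 100-1000 RFU were left out.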
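Also: ATP exposure 15 min at 22 °C before imaging.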

Row | Sequence | switch fluorescence ratio
1 | CGCTACTTAT | 1.12 ± 0.029
2 | CGCTAGATTT | 0.996 ± 0.031
3 | CGCTATTGGT | 1.002 ± 0.0043
4 | CGCTATTGTG | 1.01 ± 0.021
5 | CGCTCCCATT | 1.46 ± 0.024
6 | CGCTCGCCTG | 1.03 ± 0.016
7 | CGCTCGGTTA | 0.956 ± 0.031
8 | CGCTCGTGCG | 1 ± 0.017
9 | CGCTGACGGA | 1.01 ± 0.053
10 | CGCTGAGCTG | 1 ± 0.029
11 | CGCTGAGTTT | 0.993 ± 0.021
12 | CGCTGCTAAT | 1.58 ± 0.08
13 | CGCTGGCCGG | 0.972 ± 0.037
14 | CGCTGGGGGG | 1.02 ± 0.048
15 | CGCTGTGACT | 1.02 ± 0.031
16 | CGCTTAACGT | 1.05 ± 0.096
17 | CGCTTAATCT | 1.07 ± 0.018
18 | CGCTTAGGTT | 1.06 ± 0.061
19 | CGCTTATAGG | 1.03 ± 0.052
20 | CGCTTATGCA | 1.02 ± 0.02
21 | CGCTTGTCAC | 1.18 ± 0.021
22 | CGCTTGTGTT | 0.9821 ± 0.0015
23 | CGCTTTACTA | 2.21 ± 0.07

Row | Sequence | switch fluorescence ratio
24 | CGCTTTAGTG | 1.01 ± 0.014
25 | CGCTTTAGTT | 0.986 ± 0.026
26 | CGCTTTTGGG | 0.999 ± 0.03
27 | CGGAAAAAGC | 0.985 ± 0.028
28 | CGGAAAATTA | 1.015 ± 0.0067
29 | CGGAAACATT | 1.04 ± 0.039
30 | CGGAAAGAAG | 0.989 ± 0.046
31 | CGGAAAGCAG | 1.02 ± 0.028
32 | CGGAAAGGGG | 0.978 ± 0.021
33 | CGGAACCGGG | 1.03 ± 0.024
34 | CGGAACGCTC | 1.71 ± 0.025
35 | CGGAAGACGT | 1.02 ± 0.036
36 | CGGAAGGCAT | 1.04 ± 0.025
37 | CGGAATAATT | 1.04 ± 0.025
38 | CGGAATAGTG | 1.2 ± 0.039
39 | CGGAATTCAC | 1.39 ± 0.017
40 | CGGACCGATG | 1.01 ± 0.0094
41 | CGGACTCAAA | 1.12 ± 0.025
42 | CGGAGAAGGG | 0.974 ± 0.029
43 | CGGAGAGAGG | 1.01 ± 0.015
44 | CGGAGAGCTG | 1.04 ± 0.014
45 | CGGAGATAGT | 1.02 ± 0.028
46 | CGGAGCTACG | 1.49 ± 0.04

Row | Sequence | switch fluorescence ratio
47 | CGGAGGAGC | 1.02 ± 0.016
48 | CGGAGGAGGG | 1.21 ± 0.3
49 | CGGAGGAGTA | 1.03 ± 0.03
50 | CGGAGGGGAG | 0.977 ± 0.011
51 | CGGAGTGTGT | 1.01 ± 0.016
52 | CGGATATAAG | 1.01 ± 0.013
53 | CGGATATTGT | 0.995 ± 0.028
54 | CGGATCGACA | 0.976 ± 0.025
55 | CGGATCGGTG | 0.991 ± 0.019
56 | CGGATCTGAG | 1.01 ± 0.078
57 | CGGATGAGGC | 1.08 ± 0.018
58 | CGGATGCGTT | 0.981 ± 0.024
59 | CGGATGGATC | 1.02 ± 0.041
60 | CGGATGTGGT | 0.973 ± 0.016
61 | CGGATGTGTT | 0.951 ± 0.048
62 | CGGATGTTTT | 0.984 ± 0.02
63 | CGGATTTTCA | 0.9999 ± 0.0067
64 | CGGCACGTGG | 0.998 ± 0.021
65 | CGGCACGTTA | 1.06 ± 0.025
66 | CGGCAGAGGG | 1.02 ± 0.022
67 | CGGCAGCCGG | 1.01 ± 0.062
68 | CGGCAGGCGG | 1.05 ± 0.044
69 | CGGCAGGGGA | 1.05 ± 0.051

Row | Sequence | switch fluorescence ratio
70 | CGGCAGTATC | 1.51 ± 0.12
71 | CGGCATTGGG | 1.02 ± 0.04
72 | CGGCCCAAGG | 1.22 ± 0.022
73 | CGGCCCGTAG | 1.02 ± 0.036
74 | CGGCCTTGCA | 1.026 ± 0.0095
75 | CGGCGTACTG | 1.03 ± 0.059
76 | CGGCGTGAGC | 0.993 ± 0.067
77 | CGGCGTGTAT | 1 ± 0.055
78 | CGGCTAGGGT | 0.998 ± 0.021
79 | CGGCTAGTCT | 0.993 ± 0.13
80 | CGGCTATGTT | 0.9712 ± 0.0027
81 | CGGCTCCTCA | 1.08 ± 0.045
82 | CGGCTGACTG | 1.05 ± 0.019
83 | CGGCTGGGCT | 0.988 ± 0.024
84 | CGGCTTAAGG | 1.01 ± 0.019
85 | CGGCTTAATA | 1.02 ± 0.019
86 | CGGCTTGTTG | 1.01 ± 0.017
87 | CGGGAAAGTT | 1.02 ± 0.04
88 | CGGGAACTCT | 1.013 ± 0.0054
89 | CGGGAATAAA | 0.993 ± 0.016
90 | CGGGAATCGA | 1 ± 0.012
91 | CGGGACAGTG | 0.957 ± 0.024
92 | CGGGACGTGT | 0.969 ± 0.021

Row | Sequence | switch fluorescence ratio
93 | CGGGAGAAAT | 1.24 ± 0.34
94 | CGGGAGAGGA | 0.988 ± 0.033
95 | CGGGAGAGGT | 0.988 ± 0.011
96 | CGGGAGCTGT | 1.01 ± 0.072
97 | CGGGAGGGGC | 1.02 ± 0.058
98 | CGGGAGGGGG | 1.06 ± 0.07
99 | CGGGAGGTGC | 1.02 ± 0.033
100 | CGGGAGTTCG | 0.992 ± 0.077
101 | CGGGATACGG | 1.19 ± 0.065
102 | CGGGATAGGC | 1.12 ± 0.02
103 | CGGGATATAT | 0.994 ± 0.028
104 | CGGGATCCAG | 1.01 ± 0.0094
105 | CGGGCAATTT | 1.38 ± 0.1
106 | CGGGCAGGTT | 1.11 ± 0.18
107 | CGGGCATATA | 1.1969 ± 8.5e-05
108 | CGGGCATCGA | 0.995 ± 0.061
109 | CGGGCATGCT | 1.04 ± 0.034
110 | CGGGCCGGGC | 0.983 ± 0.029
111 | CGGGCCGGGG | 1.02 ± 0.033
112 | CGGGCGCGGA | 1.01 ± 0.048
113 | CGGGCGCGTG | 0.978 ± 0.053
114 | CGGGCGGGAT | 1.04 ± 0.029
115 | CGGGCTAACA | 0.972 ± 0.017

Row | Sequence | switch fluorescence ratio
116 | CGGGCTAAGA | 1.02 ± 0.041
117 | CGGGCTTGGT | 1.01 ± 0.032
118 | CGGGCTTTAA | 0.995 ± 0.026
119 | CGGGCTTTAT | 1.006 ± 0.0073
120 | CGGGCTTTGG | 1.01 ± 0.035
121 | CGGGGAAAGT | 0.996 ± 0.015
122 | CGGGGACAGA | 0.984 ± 0.041
123 | CGGGGACGGC | 0.98 ± 0.025
124 | CGGGGACTTC | 1.02 ± 0.019
125 | CGGGGATTGA | 0.97 ± 0.03
126 | CGGGGCAAGG | 0.984 ± 0.057
127 | CGGGGCACCA | 0.99 ± 0.032
128 | CGGGGCAGGG | 1.01 ± 0.062
129 | CGGGGCGCGC | 1.02 ± 0.044
130 | CGGGGCGGTG | 1.02 ± 0.037
131 | CGGGGCGTGT | 0.988 ± 0.046
132 | CGGGGCTAGC | 1.02 ± 0.026
133 | CGGGGCTATG | 0.997 ± 0.0053
134 | CGGGGCTGCT | 1.01 ± 0.018
135 | CGGGGCTGTG | 1 ± 0.013
136 | CGGGGGAAAA | 1.03 ± 0.054
137 | CGGGGGAAAG | 1.01 ± 0.041
138 | CGGGGGAAGT | 0.981 ± 0.068

Row | Sequence | switch fluorescence ratio
139 | CGGGGGACAG | 1.03 ± 0.066
140 | CGGGGGACTA | 0.985 ± 0.015
141 | CGGGGGAGCA | 1.01 ± 0.017
142 | CGGGGGCAAG | 1.07 ± 0.016
143 | CGGGGGCGGT | 0.998 ± 0.03
144 | CGGGGGGA | 1.39 ± 0.54
145 | CGGGGGGAGA | 1.03 ± 0.061
146 | CGGGGGGCCA | 1.016 ± 0.0048
147 | CGGGGGGGAG | 1.01 ± 0.067
148 | CGGGGGGGGC | 1.02 ± 0.044
149 | CGGGGGTCCG | 0.926 ± 0.087
150 | CGGGGGTGTA | 0.995 ± 0.026
151 | CGGGGGTGTG | 0.993 ± 0.035
152 | CGGGGTAGTG | 0.999 ± 0.02
153 | CGGGGTATTC | 0.964 ± 0.078
154 | CGGGGTGAGA | 0.9809 ± 0.0069
155 | CGGGGTGCAC | 1.05 ± 0.023
156 | CGGGGTGTCT | 1.02 ± 0.071
157 | CGGGGTGTGT | 1.01 ± 0.023
